Results from patent publication US6432920B1, “Nck SH3 binding peptides” (Cytogen Corporation, priority 1994, dated 2002).
“Also recorded” adds a separate entry of the source.

Experiments:
[1] = biological target: Src and PI-3′ Kinase SH3 domains; conditions: Yu et al., biased synthetic peptide library; read-out: binding affinity; cited from earlier work
Yes SH3-GST = biological target: T1, Yes SH3-GST (Homo sapiens, UniProt P07947); assay: Biotinylated synthetic peptide binding ELISA to immobilized Yes SH3-GST; conditions: 10 μM biotinylated peptide, FIG. 8
T1 construct: a construct expressing the SH3 domain of Yes was obtained from Dr. Marius Sudol (Rockefeller University); made in house; host or cells: bacteria (pGEX vector)
T1 sequence (P07947 91-152 limits assumed): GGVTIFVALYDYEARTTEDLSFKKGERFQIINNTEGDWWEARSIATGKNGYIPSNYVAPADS
Procedure: (§1) These biotinylated peptides were assayed for direct binding to immobilized Src SH3-GST. […] Furthermore, a strong correlation was observed between the similarity of a given peptide to the preferred core consensus sequence RPLP(P/M)LP (SEQ ID NO:96) and the peptide's affinity for Src SH3-GST.
(§2) The preparation of Src-GST fusion protein was first described by Smith and Johnson, in Gene (1988) 67:31, the disclosure of which is incorporated by reference herein. Briefly, pGEX-derived (Pharmacia, Piscataway, N.J.) constructs expressing GST fusion proteins containing the SH3 domains of Src, Grb2, Crk, Abl, or PLCγ were obtained from Dr. Channing Der (University of North Carolina at Chapel Hill); a construct expressing the SH3 domain of Yes was obtained from Dr. Marius Sudol (Rockefeller University). The use of the pGEX bacterial expression vector for the production of GST-SH3 fusion proteins is well-known to those in the art. See, e.g., Cicchetti, P. et al., in Science (1992) 257:803-806. Briefly, the coding region for a particular SH3 domain can be fused in-frame at the Bam HI site of pGEX-2T. Thus, fusion proteins were prepared as per the manufacturer's instructions, and quantified by Coomassie Blue staining of SDS-polyacrylamide gels. Microtiter wells were coated with 5-20 μg GST-SH3 fusion protein in 100 mM NaHCO3, pH 8.5, blocked with 100 mM NaHCO3 (pH 8.5) 1% BSA, and washed. All washes consisted of five applications of 1XPBS, 0.1% Tween 20, 0.1% BSA (Buffer A). Where appropriate, the amount of protein bound to each well was quantified with an anti-GST antibody-based ELISA (Pharmacia, Piscataway, N.J.), and with a GST-binding phage, isolated during the course of this work.
(§3) Peptides were obtained from Research Genetics (Birmingham, Ala.), Chiron Mimotopes (Victoria, Australia), or synthesized by conventional techniques by Dr. J. Mark Carter of Cytogen Corporation (Princeton, N.J.). Peptide purity was assessed by HPLC and/or mass spectrometry. Biotinylated peptides were synthesized with either a KSGSG (SEQ ID NO:103) or a GSGS (SEQ ID NO:104) peptide linker (a spacer) between the biotin and the N-terminus of the peptide. Binding experiments were performed as above, excepting the use of 10 μM peptide instead of phage. Bound biotinylated peptide was detected with streptavidin conjugated to alkaline phosphatase (Sigma Chemical Co., St. Louis, Mo.). After one hour incubation period at room temperature, the wells were washed, and a solution of 3 mM p-nitrophenyl-phosphate (US Biochemicals, Cleveland, Ohio) in 50 mM NaCO3 (pH 9.8), and 50 mM MgCl2 was added and color allowed to develop. Signals were read with an ELISA plate reader (Molecular Devices, Menlo Park, Calif.) at 405 nm wavelength. Binding experiments were performed in triplicate.

Xenopus laevis oocytes = assay: Progesterone-induced X. laevis oocyte maturation (germinal vesicle breakdown); format: cell-based; conditions: oocytes injected with 40 nL of 100 μM test peptide, 2 μg/mL progesterone; relative to water
Procedure: Briefly, Stage VI oocytes were prepared and injected as previously described (see, Kay, B. K., in Methods in Cell Biol. (1991) 36:663-669). Oocytes were injected with 40 nL of 100 μM test peptide or water. After injection, the oocytes were placed in 2 μg/mL progesterone (Sigma, St. Louis, MO) and scored hourly for germinal vesicle breakdown (GVBD). LAPPKPPLPEGEV is SEQ ID NO:70.
Moreover, Xenopus laevis oocytes injected with mRNA encoding constitutively active Src undergo progesterone-induced maturation at an accelerated rate relative to oocytes injected with water or c-Src mRNA. Unger, T. F. and Steele, R. E. in Mol. Cell. Biol. (1992) 12:5485-5498. To explore the ability of the library-derived Src SH3-binding peptides to exert a biochemical effect in vivo, the influence of the peptides on the maturation of Xenopus laevis oocytes was examined. […] The magnitude of this effect is roughly equivalent to that seen with injection of mRNA encoding constituitively active Src. See, e.g., FIG. 3B in Unger, T. F. and Steele, R. E., supra. […]
Segments of adult ovary were removed surgically and incubated in 0.1% collagenase type D (Boehringer Mannheim, Indianapolis, Ind.) in Ca^2+-free OR2 (82.5 mM NaCl, 2.5 mM KCl, 1.0 mM MgCl2, 1.0 mM Na2HPO4, 5.0 mM HEPES, and 3.8 mM NaOH, pH 7.6). […] Oocytes were scored at hourly time points for germinal vesicle breakdown (GVBD).

PLCγ1 SH2SH3-GST = assay: Biotinylated synthetic peptide binding ELISA to immobilized PLCγ1 SH2SH3-GST; conditions: 10 μM biotinylated peptide, FIG. 8
Procedure: (§4) As mentioned above, the relative specificity of binding was explored. Thus, the relative binding of Src SH3-selected peptides to equal amounts of GST fusions to SH3 domains from different proteins was determined (FIG. 8). While all of the library-derived peptides bound the Src and Yes SH3 domains almost equally well, none of the peptides (with the exception of peptide T12.SRC3.1, the most divergent peptide tested) bound the SH3 domains of Grb2, Crk, Abl or PLCγ1 appreciably.
as §2, with “Briefly, the coding region for a particular SH3 domain can be fused in-frame at the Bam HI site of pGEX-2T.” left out, “Microtiter wells were coated with 5-20 μg GST-SH3 fusion protein in 100 mM NaHCO3, pH 8.5, blocked with 100 mM NaHCO3 (pH 8.5) 1% BSA, and washed. All washes consisted of five applications of 1XPBS, 0.1% Tween 20, 0.1% BSA (Buffer A).” left out
(§5) Peptides were obtained from Research Genetics (Birmingham, Ala.), Chiron Mimotopes (Victoria, Australia), or synthesized by conventional techniques by Dr. J. Mark Carter of Cytogen Corporation (Princeton, N.J.). Peptide purity was assessed by HPLC and/or mass spectrometry. […] Bound biotinylated peptide was detected with streptavidin conjugated to alkaline phosphatase (Sigma Chemical Co., St. Louis, Mo.). […] Signals were read with an ELISA plate reader (Molecular Devices, Menlo Park, Calif.) at 405 nm wavelength. […]

Grb2-GST = biological target: T2, Grb2-GST (Homo sapiens, UniProt P62993); assay: Biotinylated synthetic peptide binding ELISA to immobilized Grb2-GST; conditions: 10 μM biotinylated peptide, FIG. 8
T2 construct: made in house; host or cells: bacteria (pGEX vector)
T2 sequence (P62993 whole entry): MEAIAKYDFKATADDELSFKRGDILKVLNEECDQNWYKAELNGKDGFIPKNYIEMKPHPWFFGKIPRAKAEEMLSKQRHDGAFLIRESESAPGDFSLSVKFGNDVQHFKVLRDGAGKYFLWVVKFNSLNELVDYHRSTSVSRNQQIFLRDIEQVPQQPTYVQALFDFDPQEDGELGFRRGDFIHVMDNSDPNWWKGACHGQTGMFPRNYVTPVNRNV
Procedure: as §4
as §2, with “Briefly, the coding region for a particular SH3 domain can be fused in-frame at the Bam HI site of pGEX-2T.” left out, “Microtiter wells were coated with 5-20 μg GST-SH3 fusion protein in 100 mM NaHCO3, pH 8.5, blocked with 100 mM NaHCO3 (pH 8.5) 1% BSA, and washed. All washes consisted of five applications of 1XPBS, 0.1% Tween 20, 0.1% BSA (Buffer A).” left out
as §5

Src SH3-GST = biological target: T3, Src SH3-GST (Homo sapiens, UniProt P12931); assay: Biotinylated synthetic peptide binding ELISA to immobilized Src SH3-GST; conditions: for binding to Src SH3 domain (Src SH3-GST): 10 μM biotinylated peptide, streptavidin-alkaline phosphatase ELISA, FIGS. 7 and 8; for relative specificity of binding for SH3 domains of different proteins: Src family versus Grb2, Crk, Abl, PLCγ SH3 domains, FIG. 8
T3 construct: Bacterially expressed Src SH3 glutathione-S-transferase (Src-GST) fusion protein was purified from bacterial lysates; made in house; host or cells: bacteria (pGEX vector)
Procedure: as §1, §2
Bacterially expressed Src SH3 glutathione-S-transferase (Src-GST) fusion protein was purified from bacterial lysates using glutathione agarose 4B (Pharmacia), according to the manufacturer's instructions. Bound Src-GST fusion protein was eluted from the glutathione agarose with 10 mM glutathione in PBS. Microtiter wells were then coated with Src-GST fusion protein (1-10 μg/well, in 50 mM NaHCO3, pH 8.5) overnight at 4° C. To block non-specific binding of phage, 100 μL 1% BSA in 100 mM NaHCO3, pH 8.5, was added to each well and allowed to incubate at room temperature for 1 hour. The wells were then washed five times with 200 μL PBS, 0.1% Tween™ 20, 0.1% BSA (Buffer A).
as §3

[2] = biological target: cellular Src of Xenopus laevis oocytes (Xenopus laevis); assay: cell-based or functional assay

Molecule | binding to Yes SH3 domain (Yes SH3-GST) (Yes SH3-GST) | binding to Src SH3 domain (Src SH3-GST) (Src SH3-GST) | relative specificity of binding for SH3 domains of different proteins (Src SH3-GST) | other results
RKLPPRPRR [“composite” peptide of Yu et al] |  |  |  | Kd [1]: 7.6 µM
VLKRPLPIPPVTR [synthetic peptide of phage clone T12.SRC3.6] | much more avidly | much more avidly; also recorded: strong binding affinities; also recorded: avid binding affinity | Src preferential | rate of progesterone-induced oocyte maturation (germinal vesicle breakdown) (Xenopus laevis oocytes): faster rate; also recorded: increased rate; binding to PLCγ SH3 domain (PLCγ1 SH2SH3-GST) (PLCγ1 SH2SH3-GST): little binding affinities; binding to Grb2 SH3 domain (Grb2-GST) (Grb2-GST): some binding affinities
KISPPTPKPRPPRPLPV [reference compound] |  | much less well |  | 
GPHRRLPPTPATR [synthetic peptide of phage clone T12.SRC3.3] | much more avidly | much more avidly; also recorded: avid binding affinity | specific to src family SH3 domains | binding to PLCγ SH3 domain (PLCγ1 SH2SH3-GST) (PLCγ1 SH2SH3-GST): little affinity; binding to Grb2 SH3 domain (Grb2-GST) (Grb2-GST): little affinity
RSTPRPLPMLPTTR [synthetic peptide of phage clone R8C.YES3.5] | much more avidly | much more avidly; also recorded: strong specific binding affinity | highly specific | 
ANPSPATRPLPTR [synthetic peptide of phage clone T12.SRC3.2] |  | comparable to the core consensus sequence | Src family specificity | binding to Src SH3 domain (Src SH3-GST) (Src SH3-GST; listed as APSPATRPLPTR): avid binding affinity
GTVEPVPPPVPPRRRPESA [reference compound] |  | much less well |  | 
RPLPPLP |  | less effective; also recorded: only weakly |  | 
RSTPRPLPPLPTTR [representative consensus motif with flanking residues of R8C.YES3.5] | much more avidly | much more avidly; also recorded: strong specific binding affinity | highly specific | 
LAPPKPPLPEGEV [proline-rich region of the cytoskeletal protein vinculin, control peptide, reference compound] |  | much less well |  | rate of progesterone-induced oocyte maturation (germinal vesicle breakdown) (Xenopus laevis oocytes): not
GILAPPVPPRNTR [synthetic peptide of phage clone T12.SRC3.1] | much more avidly | much more avidly; also recorded: binds generically; also recorded: avid binding affinity | binds generically to a broad range of SH3 domains; also recorded: more generic SH3 domain-binding characteristics | binding to PLCγ SH3 domain (PLCγ1 SH2SH3-GST) (PLCγ1 SH2SH3-GST): binds generically; binding to Grb2 SH3 domain (Grb2-GST) (Grb2-GST): binds generically
VLKRPLPIPPVTR (modifications not checked) […] |  |  |  | rate of progesterone-induced maturation of Xenopus laevis oocytes (germinal vesicle breakdown) [2]: 1 h
